Source: US20180016327A1 (Chugai, published 2018)

B1: CFP0018 18L 30T (antibody, V domains shown)
VH: QVQLVQSGAEVKKPGSSVKVSCKASGGTFSSYAISWVRQAPGQGLEWMGGIIPIFGTANYAQKFQGRVTITADESTSTAYMELSSLRSEDTAVYYCARQLYGYYELDIWGQGTLVTVSS
VL: DIQMTQSPSSLSASVGDRVTITCRASQSITDDLAWYQQKPGKAPKLLIYEASSLQSGVPSRFSGSGSGTDFTLTISSLQPEDFATYYCQQYNSYPLTFGQGTKVEIK
B2: CFP0018 18L 53N (antibody, V domains shown)
VH: QVQLVQSGAEVKKPGSSVKVSCKASGGTFSSYAISWVRQAPGQGLEWMGGIIPIFGTANYAQKFQGRVTITADESTSTAYMELSSLRSEDTAVYYCARQLYGYYELDIWGQGTLVTVSS
VL: DIQMTQSPSSLSASVGDRVTITCRASQSISDDLAWYQQKPGKAPKLLIYEASNLQSGVPSRFSGSGSGTDFTLTISSLQPEDFATYYCQQYNSYPLTFGQGTKVEIK
B3: CFP0018 18L 32Q (antibody, V domains shown)
VH: QVQLVQSGAEVKKPGSSVKVSCKASGGTFSSYAISWVRQAPGQGLEWMGGIIPIFGTANYAQKFQGRVTITADESTSTAYMELSSLRSEDTAVYYCARQLYGYYELDIWGQGTLVTVSS
VL: DIQMTQSPSSLSASVGDRVTITCRASQSISDQLAWYQQKPGKAPKLLIYEASSLQSGVPSRFSGSGSGTDFTLTISSLQPEDFATYYCQQYNSYPLTFGQGTKVEIK
B4: CFP0018 18L 32N (antibody, V domains shown)
VH: QVQLVQSGAEVKKPGSSVKVSCKASGGTFSSYAISWVRQAPGQGLEWMGGIIPIFGTANYAQKFQGRVTITADESTSTAYMELSSLRSEDTAVYYCARQLYGYYELDIWGQGTLVTVSS
VL: DIQMTQSPSSLSASVGDRVTITCRASQSISDNLAWYQQKPGKAPKLLIYEASSLQSGVPSRFSGSGSGTDFTLTISSLQPEDFATYYCQQYNSYPLTFGQGTKVEIK
B5: CFP0018 18L 50D (antibody, V domains shown)
VH: QVQLVQSGAEVKKPGSSVKVSCKASGGTFSSYAISWVRQAPGQGLEWMGGIIPIFGTANYAQKFQGRVTITADESTSTAYMELSSLRSEDTAVYYCARQLYGYYELDIWGQGTLVTVSS
VL: DIQMTQSPSSLSASVGDRVTITCRASQSISDDLAWYQQKPGKAPKLLIYDASSLQSGVPSRFSGSGSGTDFTLTISSLQPEDFATYYCQQYNSYPLTFGQGTKVEIK
B6: CFP0018 18L 93N (antibody, V domains shown)
VH: QVQLVQSGAEVKKPGSSVKVSCKASGGTFSSYAISWVRQAPGQGLEWMGGIIPIFGTANYAQKFQGRVTITADESTSTAYMELSSLRSEDTAVYYCARQLYGYYELDIWGQGTLVTVSS
VL: DIQMTQSPSSLSASVGDRVTITCRASQSISDDLAWYQQKPGKAPKLLIYEASSLQSGVPSRFSGSGSGTDFTLTISSLQPEDFATYYCQQYNNYPLTFGQGTKVEIK
B7: CFP0018 18L 93D (antibody, V domains shown)
VH: QVQLVQSGAEVKKPGSSVKVSCKASGGTFSSYAISWVRQAPGQGLEWMGGIIPIFGTANYAQKFQGRVTITADESTSTAYMELSSLRSEDTAVYYCARQLYGYYELDIWGQGTLVTVSS
VL: DIQMTQSPSSLSASVGDRVTITCRASQSISDDLAWYQQKPGKAPKLLIYEASSLQSGVPSRFSGSGSGTDFTLTISSLQPEDFATYYCQQYNDYPLTFGQGTKVEIK
B8: CFP0018 18L 94F (antibody, V domains shown)
VH: QVQLVQSGAEVKKPGSSVKVSCKASGGTFSSYAISWVRQAPGQGLEWMGGIIPIFGTANYAQKFQGRVTITADESTSTAYMELSSLRSEDTAVYYCARQLYGYYELDIWGQGTLVTVSS
VL: DIQMTQSPSSLSASVGDRVTITCRASQSISDDLAWYQQKPGKAPKLLIYEASSLQSGVPSRFSGSGSGTDFTLTISSLQPEDFATYYCQQYNSFPLTFGQGTKVEIK
B9: CFP0018 18L 31N (antibody, V domains shown)
VH: QVQLVQSGAEVKKPGSSVKVSCKASGGTFSSYAISWVRQAPGQGLEWMGGIIPIFGTANYAQKFQGRVTITADESTSTAYMELSSLRSEDTAVYYCARQLYGYYELDIWGQGTLVTVSS
VL: DIQMTQSPSSLSASVGDRVTITCRASQSISNDLAWYQQKPGKAPKLLIYEASSLQSGVPSRFSGSGSGTDFTLTISSLQPEDFATYYCQQYNSYPLTFGQGTKVEIK
B10: CFP0018 18L 30Y (antibody, V domains shown)
VH: QVQLVQSGAEVKKPGSSVKVSCKASGGTFSSYAISWVRQAPGQGLEWMGGIIPIFGTANYAQKFQGRVTITADESTSTAYMELSSLRSEDTAVYYCARQLYGYYELDIWGQGTLVTVSS
VL: DIQMTQSPSSLSASVGDRVTITCRASQSIYDDLAWYQQKPGKAPKLLIYEASSLQSGVPSRFSGSGSGTDFTLTISSLQPEDFATYYCQQYNSYPLTFGQGTKVEIK
B11: CFP0018 18L 92E (antibody, V domains shown)
VH: QVQLVQSGAEVKKPGSSVKVSCKASGGTFSSYAISWVRQAPGQGLEWMGGIIPIFGTANYAQKFQGRVTITADESTSTAYMELSSLRSEDTAVYYCARQLYGYYELDIWGQGTLVTVSS
VL: DIQMTQSPSSLSASVGDRVTITCRASQSISDDLAWYQQKPGKAPKLLIYEASSLQSGVPSRFSGSGSGTDFTLTISSLQPEDFATYYCQQYESYPLTFGQGTKVEIK
B12: CFP0018 18L 92Q (antibody, V domains shown)
VH: QVQLVQSGAEVKKPGSSVKVSCKASGGTFSSYAISWVRQAPGQGLEWMGGIIPIFGTANYAQKFQGRVTITADESTSTAYMELSSLRSEDTAVYYCARQLYGYYELDIWGQGTLVTVSS
VL: DIQMTQSPSSLSASVGDRVTITCRASQSISDDLAWYQQKPGKAPKLLIYEASSLQSGVPSRFSGSGSGTDFTLTISSLQPEDFATYYCQQYQSYPLTFGQGTKVEIK
B13: CFP0018 18L 92P (antibody, V domains shown)
VH: QVQLVQSGAEVKKPGSSVKVSCKASGGTFSSYAISWVRQAPGQGLEWMGGIIPIFGTANYAQKFQGRVTITADESTSTAYMELSSLRSEDTAVYYCARQLYGYYELDIWGQGTLVTVSS
VL: DIQMTQSPSSLSASVGDRVTITCRASQSISDDLAWYQQKPGKAPKLLIYEASSLQSGVPSRFSGSGSGTDFTLTISSLQPEDFATYYCQQYPSYPLTFGQGTKVEIK
B14: CFP0018 18L 93R (antibody, V domains shown)
VH: QVQLVQSGAEVKKPGSSVKVSCKASGGTFSSYAISWVRQAPGQGLEWMGGIIPIFGTANYAQKFQGRVTITADESTSTAYMELSSLRSEDTAVYYCARQLYGYYELDIWGQGTLVTVSS
VL: DIQMTQSPSSLSASVGDRVTITCRASQSISDDLAWYQQKPGKAPKLLIYEASSLQSGVPSRFSGSGSGTDFTLTISSLQPEDFATYYCQQYNRYPLTFGQGTKVEIK
B15: CFP0018 18L 92D (antibody, V domains shown)
VH: QVQLVQSGAEVKKPGSSVKVSCKASGGTFSSYAISWVRQAPGQGLEWMGGIIPIFGTANYAQKFQGRVTITADESTSTAYMELSSLRSEDTAVYYCARQLYGYYELDIWGQGTLVTVSS
VL: DIQMTQSPSSLSASVGDRVTITCRASQSISDDLAWYQQKPGKAPKLLIYEASSLQSGVPSRFSGSGSGTDFTLTISSLQPEDFATYYCQQYDSYPLTFGQGTKVEIK
B16: CFP0018 18L 94H (antibody, V domains shown)
VH: QVQLVQSGAEVKKPGSSVKVSCKASGGTFSSYAISWVRQAPGQGLEWMGGIIPIFGTANYAQKFQGRVTITADESTSTAYMELSSLRSEDTAVYYCARQLYGYYELDIWGQGTLVTVSS
VL: DIQMTQSPSSLSASVGDRVTITCRASQSISDDLAWYQQKPGKAPKLLIYEASSLQSGVPSRFSGSGSGTDFTLTISSLQPEDFATYYCQQYNSHPLTFGQGTKVEIK
B17: CFP0018 18L 92S (antibody, V domains shown)
VH: QVQLVQSGAEVKKPGSSVKVSCKASGGTFSSYAISWVRQAPGQGLEWMGGIIPIFGTANYAQKFQGRVTITADESTSTAYMELSSLRSEDTAVYYCARQLYGYYELDIWGQGTLVTVSS
VL: DIQMTQSPSSLSASVGDRVTITCRASQSISDDLAWYQQKPGKAPKLLIYEASSLQSGVPSRFSGSGSGTDFTLTISSLQPEDFATYYCQQYSSYPLTFGQGTKVEIK
B18: CFP0018 18L 92T (antibody, V domains shown)
VH: QVQLVQSGAEVKKPGSSVKVSCKASGGTFSSYAISWVRQAPGQGLEWMGGIIPIFGTANYAQKFQGRVTITADESTSTAYMELSSLRSEDTAVYYCARQLYGYYELDIWGQGTLVTVSS
VL: DIQMTQSPSSLSASVGDRVTITCRASQSISDDLAWYQQKPGKAPKLLIYEASSLQSGVPSRFSGSGSGTDFTLTISSLQPEDFATYYCQQYTSYPLTFGQGTKVEIK
B19: CFP0018 18L 53T (antibody, V domains shown)
VH: QVQLVQSGAEVKKPGSSVKVSCKASGGTFSSYAISWVRQAPGQGLEWMGGIIPIFGTANYAQKFQGRVTITADESTSTAYMELSSLRSEDTAVYYCARQLYGYYELDIWGQGTLVTVSS
VL: DIQMTQSPSSLSASVGDRVTITCRASQSISDDLAWYQQKPGKAPKLLIYEASTLQSGVPSRFSGSGSGTDFTLTISSLQPEDFATYYCQQYNSYPLTFGQGTKVEIK
B20: CFP0018 18L 93G (antibody, V domains shown)
VH: QVQLVQSGAEVKKPGSSVKVSCKASGGTFSSYAISWVRQAPGQGLEWMGGIIPIFGTANYAQKFQGRVTITADESTSTAYMELSSLRSEDTAVYYCARQLYGYYELDIWGQGTLVTVSS
VL: DIQMTQSPSSLSASVGDRVTITCRASQSISDDLAWYQQKPGKAPKLLIYEASSLQSGVPSRFSGSGSGTDFTLTISSLQPEDFATYYCQQYNGYPLTFGQGTKVEIK
B21: CFP0018 18L 53H (antibody, V domains shown)
VH: QVQLVQSGAEVKKPGSSVKVSCKASGGTFSSYAISWVRQAPGQGLEWMGGIIPIFGTANYAQKFQGRVTITADESTSTAYMELSSLRSEDTAVYYCARQLYGYYELDIWGQGTLVTVSS
VL: DIQMTQSPSSLSASVGDRVTITCRASQSISDDLAWYQQKPGKAPKLLIYEASHLQSGVPSRFSGSGSGTDFTLTISSLQPEDFATYYCQQYNSYPLTFGQGTKVEIK

Molecular target: T1, human C5 (human, UniProt P01031 19-673; P01031 678-1676, Beta and alpha chains are disulfide-linked and the protein is glycosylated.)
T1 construct: Either in-house recombinant C5 or plasma derived C5 (CALBIOCHEM) was used; also called recombinant human C5; plasma derived human C5
Assay: Biacore, captured antibody, pH 7.4, 37 C;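 further: biacore binding response of anti-C5 antibody light chain variants captured on chip with human C5 injected, ACES running buffer containing 1.2 mM CaCl₂, parent light chain antibody set to 100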
Method: The light chain variants were tested for the binding affinity to C5 at pH 7.4 and at 37 degrees C. using Biacore T200 instrument (GE Healthcare) or Biacore 4000 instrument (GE Healthcare). […] Anti-C5 antibodies were captured on an immobilized molecule, and then human C5 was injected. The running buffer used was pH 7.4 ACES Buffer containing 1.2 mM Ca (20 mM ACES, 150 mM NaCl, 1.2 mM CaCl₂, 0.05% Tween 20). A value, % binding, was determined by normalizing binding response with that of antibody comprising parent light chain as 100.

Point of comparison: B18, “% binding (parent = 100)” value 95.1%. Against it:
- B1 — lower, 90.7%
- B2 — lower, 91.2%
- B3 — lower, 21.9%
- B4 — higher, 527%
- B5 — lower, 22.2%
- B6 — higher, 107%
- B7 — lower, 23.8%
- B8 — lower, 28.6%
- B9 — higher, 130%
- B10 — lower, 82.4%
- B11 — lower, 40.9%
- B12 — higher, 125%
- B13 — lower, 64.5%
- B14 — higher, 136%
- B15 — lower, 31.7%
- B16 — lower, 17.6%
- B17 — higher, 104%
- B19 — lower, 44.5%
- B20 — lower, 79.1%
- B21 — lower, 94.4%
